Measurements reported in article PMC10200060, “Inhibition of DAMP actions in the tumoral microenvironment using lactoferrin-glycyrrhizin conjugate for glioblastoma therapy” (Biomaterials Research, 2023).

Tests used:
[1] = GBM targeted-GL by HPLC in brain homogenate; assay type: in vivo, orthotopic GBM model mice
Experimental: Orthotopic GBM mice model mice were used for quantification of GBM targeting efficacy. The brain tissue was homogenized in deionized water at a 33.3 w/v (%) using a FastPrep-24 5G (MP biomedical, South Korea). The GL were added to pooled brain homogenate to obtain seven-point calibration curves with a range of 10–1000 ng mL^−1. Then, homogenate (50 μL) was mixed with methanol (100 μL). […] Thereafter, supernatants (100 μL) were mixed with mobile phase solution (900 μL), then filtered with a 0.22 μm syringe filter. Samples were collected in a 2 mL HPLC vial (Screw top vial, Waters, USA) and analyzed by HPLC at 254 nm. […] Mice were sacrificed and brain tissues were collected 10 min after the GL and Lf-GL injection. The samples for quantification were also conducted using the same process as GL standard preparation.

HMGB1 = test: Immunofluorescence staining of HMGB1 in GBM tissue; assay type: in vivo, Balb/c nude mice; conditions: GBM mice, daily i.v. GL equivalent 50 mg kg^−1, 14 days (control 15.3 ± 1.7)
Text: After two weeks, mice were sacrificed, and the brains were harvested and fixed with paraformaldehyde (4%). Then, tissue processing was automatically conducted using a Leica TP1020 semi-enclosed Benchtop Tissue Processor (Leica Biosystems, Wetzlar, Hesse, Germany), followed by embedding in paraffin blocks. Paraffin blocks were sliced into 5 μm thick slices using a Leica RM2145 Microtome (Leica Biosystems). Nissl staining was used to stain brain tissue slides with pre-warmed 0.1% Cresyl Violet Stain Solution (Abcam). TUNEL assays were conducted following the manufacturer’s instructions. For immunofluorescence staining; anti-HMGB1 antibody (Abcam), anti-Ki67 antibody (Abcam), anti-CD31 antibody (Abcam), and anti-VEGF antibody (Abcam) were used as primary antibodies, and goat anti-rabbit IgG-H&L Alexa Fluor 488 and goat anti-rabbit IgG H&L Alexa Fluor 647 were used as secondary antibodies, followed by DAPI mounting.

B1: Lf-GL: lactoferrin-glycyrrhizin conjugate with ligation ratio Lf:GL 1:10, used in further experiments (conjugate, UniProt P24627 20-708, looked up)
Lactotransferrin: APRKNVRWCTISQPEWFKCRRWQWRMKKLGAPSITCVRRAFALECIRAIAEKKADAVTLDGGMVFEAGRDPYKLRPVAAEIYGTKESPQTHYYAVAVVKKGSNFQLDQLQGRKSCHTGLGRSAGWIIPMGILRPYLSWTESLEPLQGAVAKFFSASCVPCIDRQAYPNLCQLCKGEGENQCACSSREPYFGYSGAFKCLQDGAGDVAFVKETTVFENLPEKADRDQYELLCLNNSRAPVDAFKECHLAQVPSHAVVARSVDGKEDLIWKLLSKAQEKFGKNKSRSFQLFGSPPGQRDLLFKDSALGFLRIPSKVDSALYLGSRYLTTLKNLRETAEEVKARYTRVVWCAVGPEEQKKCQQWSQQSGQNVTCATASTTDDCIVLVLKGEADALNLDGGYIYTAGKCGLVPVLAENRKSSKHSSLDCVLRPTEGYLAVAVVKKANEGLTWNSLKDKKSCHTAVDRTAGWNIPMGLIVNQTGSCAFDEFFSQSCAPGADPKSRLCALCAGDDQGLDKCVPNSKEKYYGYTGAFRCLAEDVGDVAFVKNDTVWENTNGESTADWAKNLNREDFRLLCLDGTRKPVTEAQSCHLAVAPNHAVVSRSDRAAHVKQVLLHQQALFGKNGKNCPDKFCLFKSETKNLLFNDNTECLAKLGGRPTYEEYLGTEYVTAIANLKKCSTSPLLEACAFLTR
modifications: glycyrrhizin conjugate
[1]; brain/GBM accumulation
  Accumulated amount higher than GL without Lf conjugation: twofold
[1]; orthotopic GBM mice, i.v. GL equivalent 50 mg kg^−1, 10 min after injection
  GL concentration detected in brain homogenate: 19.3 ± 1.6 µg/mL
HMGB1
  Mean fluorescence intensity (MFI) of HMGB1: 1.7 ± 1.0
